Results as given in article PMC5762521.

Biological target: T1, Heat shock transcription factor-1 (HSF-1) (human (endogenous in HCT-116)), Q00613
T1 chain: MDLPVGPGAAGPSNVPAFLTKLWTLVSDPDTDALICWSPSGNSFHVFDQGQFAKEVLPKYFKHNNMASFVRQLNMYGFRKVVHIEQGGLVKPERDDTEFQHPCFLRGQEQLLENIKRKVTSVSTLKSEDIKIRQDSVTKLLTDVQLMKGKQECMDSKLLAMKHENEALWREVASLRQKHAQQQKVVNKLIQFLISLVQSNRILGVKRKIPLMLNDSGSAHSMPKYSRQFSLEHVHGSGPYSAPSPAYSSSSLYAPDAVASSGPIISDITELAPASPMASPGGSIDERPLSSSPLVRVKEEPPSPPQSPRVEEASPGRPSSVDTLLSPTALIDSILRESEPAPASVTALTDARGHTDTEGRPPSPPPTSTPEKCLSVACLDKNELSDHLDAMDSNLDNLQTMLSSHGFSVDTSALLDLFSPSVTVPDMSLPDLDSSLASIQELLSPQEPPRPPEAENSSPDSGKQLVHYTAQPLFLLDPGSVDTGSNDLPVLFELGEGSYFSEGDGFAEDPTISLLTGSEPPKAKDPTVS
Assay: cross-linking; HCT-116 cell lysates (control, heat shock, vitexin-treated); 10 ug protein with 2 mM glutaraldehyde, room temperature, 30 min, stopped with lysine; SDS-PAGE and anti-HSF-1 blot; vitexin treatment said to inhibit oligomerization
Conditions: remark: other sources report otherwise

stoichiometry N: 3
B1: Heat shock transcription factor-1 (HSF-1), Q00613 1-529 (natural protein)
chain: MDLPVGPGAAGPSNVPAFLTKLWTLVSDPDTDALICWSPSGNSFHVFDQGQFAKEVLPKYFKHNNMASFVRQLNMYGFRKVVHIEQGGLVKPERDDTEFQHPCFLRGQEQLLENIKRKVTSVSTLKSEDIKIRQDSVTKLLTDVQLMKGKQECMDSKLLAMKHENEALWREVASLRQKHAQQQKVVNKLIQFLISLVQSNRILGVKRKIPLMLNDSGSAHSMPKYSRQFSLEHVHGSGPYSAPSPAYSSSSLYAPDAVASSGPIISDITELAPASPMASPGGSIDERPLSSSPLVRVKEEPPSPPQSPRVEEASPGRPSSVDTLLSPTALIDSILRESEPAPASVTALTDARGHTDTEGRPPSPPPTSTPEKCLSVACLDKNELSDHLDAMDSNLDNLQTMLSSHGFSVDTSALLDLFSPSVTVPDMSLPDLDSSLASIQELLSPQEPPRPPEAENSSPDSGKQLVHYTAQPLFLLDPGSVDTGSNDLPVLFELGEGSYFSEGDGFAEDPTISLLTGSEPPKAKDPTVS
